Substitutions are numbered along the chain they refer to. Several values for one entry are separate records, joined by “and”; a condition that tells them apart may be missing. Identical values can stand only once. Like-named read-outs stand apart in the source and are kept apart here.

Test [1] deals with T1, Recombinant Human FGF-23 (R&D Systems, Cat No. 2604-FG-025/CF) (human, UniProt Q9GZV9 25-251).
T1 sequence (looked up): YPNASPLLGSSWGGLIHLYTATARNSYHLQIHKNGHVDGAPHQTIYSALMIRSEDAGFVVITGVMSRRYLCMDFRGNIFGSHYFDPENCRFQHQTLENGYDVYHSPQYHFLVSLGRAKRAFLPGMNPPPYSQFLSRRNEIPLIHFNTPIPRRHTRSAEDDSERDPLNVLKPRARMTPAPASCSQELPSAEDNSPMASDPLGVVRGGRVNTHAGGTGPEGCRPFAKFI
Description: cell-based or functional assay.

Test [2] deals with T1, Recombinant Human FGF-23 (R&D Systems, …). Description: SPR, antibody captured on Protein A chip, FGF-23 analyte.
For test [3] the target is unchanged. Description: cell-based or functional assay. The source holds these as a separate data set.
The target in test [4] is T2, human FcRn (human FcRn-His tag with human β2 microglobulin) (human, UniProt P55899 24-297; P61769 21-119).
T2 construct: also called h FcRn; hFcRn
T2 sequence (P55899 other isoform, or with tags, fused parts or gaps limits assumed, chain 1 of 2): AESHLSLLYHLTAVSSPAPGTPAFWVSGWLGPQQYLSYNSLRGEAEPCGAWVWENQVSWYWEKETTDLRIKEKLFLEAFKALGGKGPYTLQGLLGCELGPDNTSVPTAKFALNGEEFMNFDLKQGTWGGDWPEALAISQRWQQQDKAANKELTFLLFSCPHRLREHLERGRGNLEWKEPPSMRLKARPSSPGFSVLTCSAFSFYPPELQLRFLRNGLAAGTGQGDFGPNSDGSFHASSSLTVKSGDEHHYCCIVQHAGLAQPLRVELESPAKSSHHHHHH
T2 sequence (P61769 21-119 limits assumed, chain 2 of 2): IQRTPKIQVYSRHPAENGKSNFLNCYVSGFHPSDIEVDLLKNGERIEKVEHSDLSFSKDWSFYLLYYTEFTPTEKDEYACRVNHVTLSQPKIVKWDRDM
Description: SPR pH 6, FcRn-His captured by anti-His, antibody analyte.

Test [5] has as its target T1, Recombinant Human FGF-23 (R&D Systems, …). The experiment in a line: SPR, antibody captured by anti-human IgG, FGF-23 analyte. In general terms: Surface plasmon resonance follows binding to a sensor surface in real time, without labels.
The target is the same in test [6]. Described as above. The source holds these as a separate data set.
The target is the same in test [7]. Description: cell-based or functional assay. The source holds these as a separate data set.
The target is the same in test [8]. Description: SPR, antibody captured by anti-human IgG, FGF-23 analyte. This is another data set of the same source.
For test [9] the target is unchanged. Description: cell-based or functional assay. The source holds these as a separate data set.
Test [10] has the same target. The experiment in a line: cell-based or functional assay. The source holds these as a separate data set.
Test [11] has the same target. Description: SPR, antibody captured by anti-human IgG, FGF-23 analyte. This is another data set of the same source.
Test [12] shares this target. The experiment in a line: SPR, antibody captured on Protein A chip, FGF-23 analyte. The source holds these as a separate data set.
Test [13] shares this target. Described as above. This is another data set of the same source.

B1: antibody A-10 (antibody, V domains shown)
VH: QVQLVQSGAEVKKPGASVKVSCKASGYTFTNHYMHWVRQAPGQGLEWMGIINPISGSTSNAQKFQGRVTMTRDTSTSTVYMELSSLRSEDTAVYYCARDYVDAFDFWGQGTMVTVSS
VL: AIQLTQSPSSLSASVGDRVTITCRASQGISSALVWYQQKPGKAPKLLIYDASSLESGVPSRFSGSGSGTDFTLTISSLQPEDFATYYCQQFYDDFDFGPGTKVDIK
notes: not shown: human kappa chain constant region
For B1, in test [1], the “FGF23 neutralizing activity, fold against antibody A” value was determined as 2 fold. For the same molecule, the Kd (in general, a measure of binding affinity in units of concentration) in [2] was 0.0202 nM. Further, the “FGF23 neutralizing activity IC50 (luciferase promoter assay)” value in test [3] was found to be 1.5 ng/mL.

B2: antibody A_G2_LS (antibody)
heavy: QVQLVQSGAEVKKPGASVKVSCKASGYTFTNHYMHWVRQAPGQGLEWMGIINPISGSTSNAQKFQGRVTMTRDTSTSTVYMELSSLRSEDTAVYYCARDIVDAFDFWGQGTMVTVSSASTKGPSVFPLAPCSRSTSESTAALGCLVKDYFPEPVTVSWNSGALTSGVHTFPAVLQSSGLYSLSSVVTVPSSNFGTQTYTCNVDHKPSNTKVDKTVERKCCVECPPCPAPPVAGPSVFLFPPKPKDTLMISRTPEVTCVVVDVSHEDPEVQFNWYVDGVEVHNAKTKPREEQFNSTFRVVSVLTVVHQDWLNGKEYKCKVSNKGLPAPIEKTISKTKGQPREPQVYTLPPSREEMTKNQVSLTCLVKGFYPSDIAVEWESNGQPENNYKTTPPMLDSDGSFFLYSKLTVDKSRWQQGNVFSCSVLHEALHSHYTQKSLSLSPGK
light: B1 VL with Y92N, D94Y, D96T
notes: not shown: human kappa chain constant region; copies: 2 + 2
With B2, in test [4], the affinity, expressed as Kd, was 310 nM.

B3: antibody I100V (antibody, human IgG1, V domains shown)
VH: B1 VH with Y100V
VL: B1 VL with Y92N, D94Y, D96T
notes: also called modified antibody I100
Regarding B3, the dissociation constant (Kd) in test [5] worked out at 0.00473 nM.

B4: antibody D105A (antibody, human IgG1, V domains shown)
VH: B1 VH with Y100I, D105A
VL: B1 VL with Y92N, D94Y, D96T
notes: also called modified antibody D105
As to B4, the dissociation constant (Kd) in test [6] is 0.108 nM. Besides, the “FGF23 neutralizing activity IC50 (luciferase promoter assay)” value in [7] is above 100 ng/mL.

B5: antibody A_LS (antibody, human IgG1, name in EU numbering)
heavy: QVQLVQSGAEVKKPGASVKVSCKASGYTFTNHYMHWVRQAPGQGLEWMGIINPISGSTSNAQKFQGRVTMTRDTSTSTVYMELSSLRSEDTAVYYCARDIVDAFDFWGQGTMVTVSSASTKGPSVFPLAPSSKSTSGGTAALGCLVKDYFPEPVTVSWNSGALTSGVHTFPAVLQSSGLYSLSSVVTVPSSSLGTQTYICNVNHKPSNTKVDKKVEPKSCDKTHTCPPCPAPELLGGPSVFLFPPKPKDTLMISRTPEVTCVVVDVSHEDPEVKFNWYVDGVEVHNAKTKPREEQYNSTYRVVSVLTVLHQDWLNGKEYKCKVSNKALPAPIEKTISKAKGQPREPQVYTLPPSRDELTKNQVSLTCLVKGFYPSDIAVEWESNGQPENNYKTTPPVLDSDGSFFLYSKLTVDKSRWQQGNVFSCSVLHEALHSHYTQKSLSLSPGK
light: B1 VL with Y92N, D94Y, D96T
notes: positions are EU index; not shown: human kappa chain constant region; copies: 2 + 2
B5 came in with a Kd in [4] of 142 nM.

B6: antibody A_IgG4PE_R409K_LS (antibody)
heavy: QVQLVQSGAEVKKPGASVKVSCKASGYTFTNHYMHWVRQAPGQGLEWMGIINPISGSTSNAQKFQGRVTMTRDTSTSTVYMELSSLRSEDTAVYYCARDIVDAFDFWGQGTMVTVSSASTKGPSVFPLAPCSRSTSESTAALGCLVKDYFPEPVTVSWNSGALTSGVHTFPAVLQSSGLYSLSSVVTVPSSSLGTKTYTCNVDHKPSNTKVDKRVESKYGPPCPPCPAPEFEGGPSVFLFPPKPKDTLMISRTPEVTCVVVDVSQEDPEVQFNWYVDGVEVHNAKTKPREEQFNSTYRVVSVLTVLHQDWLNGKEYKCKVSNKGLPSSIEKTISKAKGQPREPQVYTLPPSQEEMTKNQVSLTCLVKGFYPSDIAVEWESNGQPENNYKTTPPVLDSDGSFFLYSKLTVDKSRWQEGNVFSCSVLHEALHSHYTQKSLSLSLGK
light: B1 VL with Y92N, D94Y, D96T
notes: as for B2
In [4], B6 gave a Kd of 116 nM.

B7: antibody A (antibody, human IgG1)
heavy: not shown
light: B1 VL with Y92N, D94Y, D96T
notes: Human IgG1 antibody, kappa light chain; also called A_1; A_2; not shown: human kappa chain constant region
Take B7: the Kd in test [8] is 0.00206 nM and 0.0026 nM and 0.00376 nM; in [6] it was 0.00993 nM; in test [2], 0.0144 nM; in test [11], 0.00376 nM and 0.00415 nM; in [12], 0.00877 nM; in test [5], 0.00451 nM. Further, the “FGF23 neutralizing activity IC50 (luciferase promoter assay)” value in test [9] was determined as 1.2 ng/mL; in test [10], 3.3 ng/mL; in [3], 3.2 ng/mL; in test [7], 1.4 ng/mL. Also, the “FGF23 neutralizing activity IC50 (luciferase promoter assay), antibody A in same measurement lot” value in [10] is 3.1 ng/mL and 3.3 ng/mL; in test [3] it was 3.2 ng/mL and 2.8 ng/mL. Moreover, in [5], the on-rate constant (kon) (in general, the rate constant with which the complex forms) was 9.12e+07 M⁻¹ s⁻¹.

B8: antibody D105T (antibody, human IgG1, V domains shown)
VH: B1 VH with Y100I, D105T
VL: B1 VL with Y92N, D94Y, D96T
notes: as for B4
Turning to B8, the Kd in [6] is 0.111 nM. The “FGF23 neutralizing activity IC50 (luciferase promoter assay)” value in test [7] was above 100 ng/mL.

B9: antibody I100L (antibody, human IgG1, V domains shown)
VH: B1 VH with Y100L
VL: B1 VL with Y92N, D94Y, D96T
notes: as for B3
For B9, the Kd in [5] was determined as 0.0126 nM.

B10: antibody I100A (antibody, human IgG1, V domains shown)
VH: B1 VH with Y100A
VL: B1 VL with Y92N, D94Y, D96T
notes: as for B3
Turning to B10, the Kd in test [8] is 0.0251 nM; in test [11] it was 0.0289 nM; in [5] it was 0.014 nM. Besides, in test [7], the “FGF23 neutralizing activity IC50 (luciferase promoter assay)” value was 5.1 ng/mL.

B11: antibody A-9 (antibody, V domains shown)
VH: B1 VH with Y100A
VL: B1 VL with Y92W
notes: as for B1
On to B11, for which the “FGF23 neutralizing activity, fold against antibody A” value in [1] was determined as 3 fold. Also, in [2], the Kd was 0.00687 nM. Further, the “fold antigen binding activity against antibody A” value in test [13] worked out at 2 fold. The “FGF23 neutralizing activity IC50 (luciferase promoter assay)” value in test [3] worked out at 1 ng/mL.

The record behind these values is patent US20250163140A1 (Kyowa Kirin, published 2025).
